In paper PMC2683190:

Biological target: GST-LIF05 (mutant human LIF, LIFR antagonist, as glutathione-S-transferase fusion protein) (human) (UniProt P15018)
Assay: SPR

Chain of GST-LIF05 (mutant human LIF, LIFR antagonist, as glutathione-S-transferase fusion protein) (human) (P15018 23-202, change not shown): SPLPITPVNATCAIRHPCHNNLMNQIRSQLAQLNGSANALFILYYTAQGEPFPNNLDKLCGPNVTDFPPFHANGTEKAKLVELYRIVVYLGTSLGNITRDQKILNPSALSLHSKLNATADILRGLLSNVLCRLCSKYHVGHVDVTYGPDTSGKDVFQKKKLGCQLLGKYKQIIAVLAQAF

- Kd: 4.72 nM
- koff: 0.00265 s⁻¹
- kon: 562000 M⁻¹ s⁻¹
B1: soluble LIFR (leukemia inhibitory factor receptor) (receptor)
chain: QKKGAPHDLKCVTNNLQVWNCSWKAPSGTGRGTDYEVCIENRSRSCYQLEKTSIKIPALSHGDYEITINSLHDFGSSTSKFTLNEQNVSLIPDTPEILNLSADFSTSTLYLKWNDRGSVFPHRSNVIWEIKVLRKESMELVKLVTHNTTLNGKDTLHHWSWASDMPLECAIHFVEIRCYIDNLHFSGLEEWSDWSPVKNISWIPDSQTKVFPQDKVILVGSDITFCCVSQEKVLSALIGHTNCPLIHLDGENVAIKIRNISVSASSGTNVVFTTEDNIFGTVIFAGYPPDTPQQLNCETHDLKEIICSWNPGRVTALVGPRATSYTLVESFSGKYVRLKRAEAPTNESYQLLFQMLPNQEIYNFTLNAHNPLGRSQSTILVNITEKVYPHTPTSFKVKDINSTAVKLSWHLPGNFAKINFLCEIEIKKSNSVQEQRNVTIKGVENSSYLVALDKLNPYTLYTFRIRCSTETFWKWSKWSNKKQHLTTEASPSKGPDTWREWSSDGKNLIIYWKPLPINEANGKILSYNVSCSSDEETQSLSEIPDPQHKAEIRLDKNDYIISVVAKNSVGSSPPSKIASMEIPNDDLKIEQVVGMGKGILLTWHYDPNMTCDYVIKWCNSSRSEPCLMDWRKVPSNSTETVIESDEFRPGIRYNFFLYGCRNQGYQLLRSMIGYIEELAPIVAPNFTVEDTSADSILVKWEDIPVEELRGFLRGYLFYFGKGERDTSKMRVLESGRSDIKVKNITDISQKTLRIADLQGKTSYHLVLRAYTDGGVGPEKSMYVVTKENS
